{"source": "paper PMC4388676", "about": "(PLoS ONE, 2015)", "molecules": {"B1": {"name": "FITC-Cul3^49-68 (peptide)", "peptide": "{FITC}-NSGLSFEELYRNAYTMVLHK-NH2", "notes": "Cullin 3 (Cul3), first part of the peptide 49-68; Cullin 3 (Cul3), second part of the peptide 49-68; also called wild-type peptide; source: synthetic peptide (solid phase, Fmoc), RP-HPLC purified"}}, "key": {"[1]": {"assay": "Serum stability followed by LC-MS", "format": "in vitro ADME", "conditions": "25% human serum, 37°C, peptide 0.3 μM, time points 0, 60, 120, 180, 360 and 900 min, TFA precipitation, LC-MS read-out, triplicate", "procedure": "Human serum (Sigma Aldrich-Italy) was centrifuged at 13000 rpm for 10 min to remove lipids;the supernatant was collected and incubated at 37°C for at least 15 min. The assay started upon the addition of the peptides to the 25% serum for a final peptide concentration of 0.3 μM.\n200 μL aliquots of the samples were taken after the following time points: 0, 60, 120, 180, 360 and 900 min. The aliquots were mixed with 100 μL of 15% TFA and incubated at 4°C for at least 15 min to induce the precipitation of the serum proteins. The supernatants were collected for each sample after centrifugation at 13000 rpm for 10 min and stored at -20°C.\nThe serum stability of peptides was followed by LC-MS analysis. using a Phenomenex Jupiter C4 (150 × 2 mm; 5 μm; 300 Å) and a method consisting of an isocratic step with H2O (0.1% TFA)/CH3CN (0.1% TFA) (70:30) for 10 min and a linear gradient of H2O (0.1% TFA)/CH3CN (0.1% TFA) from 30 to 80% of CH3CN (0.1% TFA) in 20 min at flow rate of 200 μL/min.\nThe assays were performed in triplicate."}, "KCTD11^BTB": {"biological_target": "T1, KCTD11^BTB (Homo sapiens, UniProt Q693B1)", "T1 construct": "tetrameric BTB domain of KCTD11^BTB (residues 15–116) was generated; thioredoxin A (TrxA); made in house", "T1 sequence (Q693B1 15-116 isoform Q693B1-2)": "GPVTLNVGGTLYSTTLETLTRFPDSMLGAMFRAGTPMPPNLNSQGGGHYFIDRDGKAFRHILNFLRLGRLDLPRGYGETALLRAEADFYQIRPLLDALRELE", "assay": "ELISA binding of biotinylated peptides to His-TrxA-KCTD11^BTB", "conditions": "0.8 μM biotinylated peptide on streptavidin-coated wells; His-TrxA-KCTD11^BTB 0.4-15.6 μM in PBS; anti-His/HRP read at 490 nm; mean of triplicate experiments", "procedure": "For ELISA assays, 5 μg/mL streptavidin in phosphate/citrate buffer pH 5.0 was incubated overnight at 37°C for coating. Firstly, wells were coated with 0.8 μM biotinylated Cul3^49-68 peptides in phosphate buffered saline (PBS) 1X for 1 h at room temperature. Binding step was performed with increasing concentrations (0.4, 0.75, 1.5, 3.8, 7.6 and 15.6 μM) of His-TrxA- KCTD11^BTB in PBS 1X. His-TrxA was used as negative control in the same concentrations. As blocking solution 3% gelatine, 0.05% Tween-20 in PBS 1X was used for 1 h at 37°C. Washes were executed with PBS 1X. To reveal the occurred interaction mouse anti-His monoclonal antibody was incubated in 1:1000 dilution at room temperature for 2 h; then, horseradish peroxidase-conjugated anti-mouse antibody (Pierce) was diluted 1:10000 in 1% gelatin, PBS 1X and incubated at 20°C for 1 h. The colorimetric reaction has been carried out with SIGMAFAST OPD reagent (Sigma Aldrich), according to the manufacturer’s instructions. Finally, a Model 680 Microplate Reader (Bio-Rad, Hercules, CA-USA) has been used for readings at 490 nm; data were processed by a Microplate Manager 5.2 program. The reported data are mean values of triplicate experiments."}, "[2]": {"assay": "Human serum (Sigma Aldrich-Italy), 25% serum", "conditions": "37°C, up to 900 min"}, "His-TrxA-KCTD11^BTB": {"biological_target": "T2, His-TrxA-KCTD11^BTB (UniProt Q693B1-2 15-116)", "T2 construct": "KCTD11, folded BTB region of the long form (isoform 2, UniProt Q693B1-2); residues 15-116 are stated for KCTD11^BTB in the modelling paragraph; numbers count on: the long form (isoform 2); The tags are named and used for detection in the ELISA; also called recombinant KCTD11^BTB; BTB of the tetrameric KCTD11; source: recombinant fusion protein with thioredoxin A, expressed and purified as …", "T2 sequence (looked up)": "T1 sequence (Q693B1 15-116 isoform Q693B1-2)", "assay": "fluorescence polarisation; 2 uM FITC-peptide, KCTD11^BTB added at increasing concentration (0.1-15 uM in the methods; 0.1 nM to 20 uM in the legend); KCTD11^BTB concentration as monomer; triplicates", "conditions": "both partners purified"}, "KCTD5^BTB": {"biological_target": "T3, KCTD5^BTB (UniProt Q9NXV2 44-145)", "T3 construct": "KCTD5, folded BTB domain, residues 44-145; also called BTB of the pentameric KCTD5; pentameric KCTD5^BTB; source: recombinant from the pET28/KCTD5^BTB plasmid, expressed and purified as elsewhere reported [33, 34]", "T3 sequence (Q9NXV2 44-145)": "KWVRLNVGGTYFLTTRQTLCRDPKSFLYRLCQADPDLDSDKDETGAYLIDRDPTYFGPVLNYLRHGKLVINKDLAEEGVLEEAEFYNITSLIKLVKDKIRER", "assay": "fluorescence polarisation; 1 uM FITC-Cul3^49-68LA, KCTD5^BTB over 0.1 nM to 5 uM; triplicates", "conditions": "both partners purified"}}, "note": "“Also recorded” adds a separate entry of the source. Bridge positions count the residues as written; N and C are the ends. Square brackets hold non-standard residues; d marks the D form. Ends that are not written are not given here. Peptide text beside a SMILES is read from it. * marks the point of attachment. FITC = O=C1OC2(c3ccc(O)cc3Oc3cc(O)ccc32)c2ccc(NC(=S)*)cc21; S5 = C=CCCC[C@](C)(N)C(=O)O"}
{"molecule": "CSCC[C@H](NC(=O)[C@@H](NC(=O)[C@H](Cc1ccc(O)cc1)NC(=O)[C@H](C)NC(=O)[C@H](CC(N)=O)NC(=O)[C@H](CCCNC(=N)N)NC(=O)[C@H](Cc1ccc(O)cc1)NC(=O)[C@]1(C)CCCC=CCCC[C@](C)(NC(=O)[C@H](CC(C)C)NC(=O)CNC(=O)[C@H](CO)NC(=O)[C@H](CC(N)=O)NC(C)=O)C(=O)N[C@@H](Cc2ccccc2)C(=O)N[C@@H](CCC(=O)O)C(=O)N[C@@H](CCC(=O)O)C(=O)N1)[C@@H](C)O)C(=O)N[C@H](C(=O)N[C@@H](CC(C)C)C(=O)N[C@@H](Cc1c[nH]cn1)C(=O)N[C@@H](CCCCN)C(N)=O)C(C)C", "note": "[Cul3^49-68SL] (Ac-NSGL[S5]FEE[S5]YRNAYTMVLHK-NH2; staple 5-9)", "values": [{"measurement": "Estimate t1/2 in serum", "setting": "[1]", "result": "~7", "unit": "h"}]}
{"molecule": "Ac-NSGLSFEELYRNAYTMVLHK-NH2 [Cul3^49-68]", "values": [{"measurement": "half-life at 0.3 μM", "setting": "[1]; read-out: Estimate t1/2 in serum (converted)", "result": 7, "unit": "h"}]}
{"molecule": "Cul3^49-68AA: non-stapled variant of Cul3^49-68 in which Tyr58 and Tyr62 were replaced with Ala residues (NSGLSFEELARNAATMVLHK-NH2; not fully specified (N-terminus))", "values": [{"measurement": "Binding to recombinant KCTD11^BTB, qualitatively checked by ELISA", "setting": "KCTD11^BTB", "result": "No relevant binding; also recorded: completely unable to bind KCTD11^BTB"}]}
{"molecule": "Ac-NSGLSFEELYRNAYTMVLHK-NH2", "values": [{"measurement": "cleaved bond", "setting": "[2]", "result": "Tyr58-Arg59, major"}, {"measurement": "fragment found", "setting": "[2]", "result": "NAYTMVLHK-NH 2; also recorded: Ac-NSGLSFEELYR"}]}
{"molecule": "{FITC}-NSGLSFEE[S5]YRN[S5]YTMVLHK-NH2 (staple 9-13)", "note": "[FITC-Cul3^49-68LA]", "values": [{"measurement": "Kd", "setting": "His-TrxA-KCTD11^BTB", "result": 0.305, "unit": "µM"}, {"measurement": "Kd", "setting": "KCTD5^BTB", "result": 0.097, "unit": "µM"}]}
{"molecule": "B1", "values": [{"measurement": "Kd", "setting": "His-TrxA-KCTD11^BTB", "result": 0.497, "unit": "µM"}]}
{"molecule": "{FITC}-NSGLSFE[S5]LYR[S5]AYTMVLHK-NH2 (staple 8-12)", "note": "[FITC-Cul3^49-68EN]", "values": [{"measurement": "Kd", "setting": "His-TrxA-KCTD11^BTB", "result": 0.62, "unit": "µM"}]}
